# From patent publication US20110183896A1 (published 2011)
# B1: Dv-CR8-10 peptide (cadherin repeats 8-10 of the Diabrotica virgifera virgifera cadherin-like protein), biotinylated (peptide)
# chain: MAVLMTKDLQCSENLNKDGEVGEGIIGEDIDDGDNAKIDFSVLSIVDKETKNDIQESFNISKIDSDYVLNDTLKKVHLIAFEDLKGKYGTYEVTLHMHDEGDPMQTTDPDPTLTLTIEKWNYQTPSIIFPENDQTYIVLSDQQPGQPLALFNNTGTSNTLPDFSATDGETKDYSKWDVKFSYTQTNYEDDKIFVIDHIQPCVSQLQVSKHFNSDLVRSKKYKLTITASVKDGAEQEGEAGYSTSANISIVFLNNDAQPIFQNSDWSVSFVEFNTTQPAKPLEEQAEYENTKGGLPIYYHFYSENQTLSKYFEVDETSGDLSVIGNLTYDYDQDISFHIVASNDSQVRMLDPRSSLNVTVNFLPRNRRAPQWHHHHHH
# modifications: biotinylated (sites not given)
# Key:
# [1] = target: Cry3Aa toxin of Bacillus thuringiensis tenebrionis, chymotrypsin-treated (Bacillus thuringiensis subsp. …, UniProt P0A379 159-644); test: ELISA
# Cry3Aa toxin of Bacillus thuringiensis tenebrionis, chymotrypsin-treated, sequence (P0A379 159-644): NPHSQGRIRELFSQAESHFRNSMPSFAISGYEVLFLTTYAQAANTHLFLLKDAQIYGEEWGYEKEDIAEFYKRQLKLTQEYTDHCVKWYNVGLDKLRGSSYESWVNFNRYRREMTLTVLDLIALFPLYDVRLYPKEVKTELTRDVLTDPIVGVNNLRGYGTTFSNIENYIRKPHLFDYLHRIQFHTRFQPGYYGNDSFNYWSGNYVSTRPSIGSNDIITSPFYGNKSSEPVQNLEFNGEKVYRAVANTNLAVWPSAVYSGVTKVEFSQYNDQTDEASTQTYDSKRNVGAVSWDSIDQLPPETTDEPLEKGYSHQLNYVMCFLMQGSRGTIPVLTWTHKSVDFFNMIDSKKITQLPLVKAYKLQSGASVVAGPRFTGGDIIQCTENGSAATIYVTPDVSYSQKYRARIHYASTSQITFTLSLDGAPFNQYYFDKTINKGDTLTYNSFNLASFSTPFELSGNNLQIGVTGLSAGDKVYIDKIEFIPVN
# [2] = target: Cry3Bb toxin of Bacillus thuringiensis, recombinant from E. coli, chymotrypsin-treated (Bacillus thuringiensis, UniProt Q06117 160-652); test: ELISA saturation binding
# Cry3Bb toxin of Bacillus thuringiensis, recombinant from E. coli, chymotrypsin-treated, sequence (Q06117 160-652): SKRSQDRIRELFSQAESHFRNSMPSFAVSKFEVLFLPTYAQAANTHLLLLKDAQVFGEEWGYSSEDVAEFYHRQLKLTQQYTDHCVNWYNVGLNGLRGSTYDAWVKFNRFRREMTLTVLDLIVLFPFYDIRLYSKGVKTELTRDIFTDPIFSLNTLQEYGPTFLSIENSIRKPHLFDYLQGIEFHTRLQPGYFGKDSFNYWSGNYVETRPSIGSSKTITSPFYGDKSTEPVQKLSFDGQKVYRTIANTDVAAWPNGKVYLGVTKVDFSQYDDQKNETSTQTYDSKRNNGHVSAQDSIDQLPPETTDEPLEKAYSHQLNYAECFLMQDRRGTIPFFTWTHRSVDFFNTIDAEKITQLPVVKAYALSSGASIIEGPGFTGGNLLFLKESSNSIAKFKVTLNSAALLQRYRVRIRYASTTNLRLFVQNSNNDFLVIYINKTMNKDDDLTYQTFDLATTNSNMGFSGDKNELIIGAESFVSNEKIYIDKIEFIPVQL
binder,measurement,setting,value
B1,Kd,[1],18.8 nM
same,Kd,[2],1.4 nM
